The target in assay [1] is human tissue factor pathway inhibitor (TFPI) (human) (UniProt P10646). In words: SPR (Biacore) blocking assay: human TFPI immobilised on a CM5 chip, control Fab at 1 ug/ml injected before 5 ug/mL FXa; this bar is the reference set to 100% by definition, so FXa binding is not reduced. Background: SPR reads the build-up and loss of mass on a sensor chip optically.
The target is the same in assay [2]. In words: SPR (Biacore) blocking assay: human TFPI immobilised on a CM5 chip, control Fab at 1 ug/ml injected before 5 ug/mL FVIIa/TF complex; this bar is the reference set to 100% by definition, so FVIIa/TF binding is not reduced.
The target of assay [3] is T1, human tissue factor pathway inhibitor (TFPI) (human, UniProt P10646 29-304).
T1 construct: also called human TFPI
T1 sequence: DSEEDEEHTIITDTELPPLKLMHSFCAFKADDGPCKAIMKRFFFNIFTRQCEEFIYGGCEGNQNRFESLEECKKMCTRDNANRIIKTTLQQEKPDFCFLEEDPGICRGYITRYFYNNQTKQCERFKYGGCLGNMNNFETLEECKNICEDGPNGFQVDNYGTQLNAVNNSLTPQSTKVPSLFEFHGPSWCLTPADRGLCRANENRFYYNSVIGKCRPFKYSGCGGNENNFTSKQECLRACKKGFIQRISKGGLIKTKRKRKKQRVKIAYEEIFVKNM
In words: assay and TFPI form not stated; reference is the wild type with hc_Lys99.

The target in assay [4] is T1, human tissue factor pathway inhibitor …. The experiment in a line: assay and TFPI form not stated; reference is the wild type with hc_Asp62.

Turning to Ctrl Fab, the FXa binding (% of the signal after control Fab) in assay [1] was 100%. For the same molecule, the FVIIa/TF binding (% of the signal after control Fab) in assay [2] came out at 100%.

B1: Fab B (Fab, V domains shown)
VH: QVELVESGGGLVQPGGSLRLSCAASGFTFRSYGMSWVRQAPGKGLEWVSSIRGSSSSTYYADSVKGRFTISRDNSKNTLYLQMNSLRAEDTAVYYCARLYRYWFDYWGQGTLVTVSS
VL: DIELTQPPSVSVAPGQTARISCSGDNLRNYYAHWYQQKPGQAPVVVIYYDNNRPSGIPERFSGSNSGNTATLTISGTQAEDEADYYCQSWDDGVPVFGGGTKLTVLG
notes: also called monoclonal TFPI antibody Fab B
Turning to B1, the “fold affinity increase against wild type (hc_Lys99)” value in assay [3] worked out at 20 fold.

B2: Fab A (Fab, V domains shown)
VH: QVQLQQSGPGLVKPSQTLSLTCAISGDSVSSNSAAWSWIRQSPGRGLEWLGIIYKRSKWYNRYAVSVKSRITINPDTSKNQFSLQLNSVTPEDTAVYYCARWHSDKHWGFDYWGQGTLVTVSS
VL: DIVMTQSPLSLPVTPGEPASISCRSSQSLVFSDGNTYLNWYLQKPGQSPQLLIYKGSNRASGVPDRFSGSGSGTDFTLKISRVEAEDVGVYYCQQYDSYPLTFGQGTKVEIKR
notes: Expressed in E. coli; also called monoclonal antibody Fab A
In the case of B2, the “fold affinity increase against wild type (hc_Asp62)” value in assay [4] is 120 fold.

The values are drawn from US20220041752A1 (Bayer, published 2022).
